Results on one molecule are retold here after patent publication US20100196361A1, “Method of inhibition of vascular development using an antibody” (DYAX CORP., priority 2003, published 2010).

In the assay the test system is Tie1. In words: Immunohistochemistry of mouse xenograft tumor sections (SW480). The assay is classed as binding. Conditions: biotinylated antibody 10 μg/ml, formalin-fixed paraffin sections. Here is the method: We determined if antibody E3 binds to mouse endothelial cells in mouse xenographs. Immunohistochemistry was performed with biotinylated E3 IgG1 (a,z allotype) antibody and control antibodies anti-CD31 (endothelial cell specific marker) and anti-PCNA (proliferating cell nuclear antigen). Formalin-fixed tumor tissues from a mouse-xenograph containing SW480 cells (ATCC) were tested for the binding pattern of the human anti-Tie1 antibody E3. 5 μm sections of paraffin embedded tissues were deparaffinized, rehydrated and pretreated with warm the citrate buffer (0.01 M sodium citrate, pH6 at 95° C.) for 45 min. The slides were cooled down in fresh citrate buffer for 20 min and rinsed with distilled water. The slides were hydrogen peroxide treated, (0.3% H2O2 in PBS), and preincubated with PBS, 5% FCS, 5% heat inactivated human serum (HS) for 1 hour. Between antibody incubations slides were washed 3 times 5 minutes in PBS. Biotinylated antibodies E3 and A2-SV were diluted to a concentration of 10 μg/ml in PBS, 10% HS and incubated for 1 hour at RT. Slides were then incubated with an avidin-HRP (Dako) for 30 minutes at room temperature. Staining was detected by AEC (Vector Laboratories, Burlingame) and H2O2. The peroxidase reaction was stopped with water and slides were counter-stained with haematoxylin. The tissues were evaluated for their binding reactivity.

B1: E3: human anti-Tie1 antibody from phage Fab library, reformatted as IgG; HC variable SEQ ID NO:114, LC variable SEQ ID NO:116 (antibody, V domains shown)
VH: EVQLLESGGGLVQPGGSLRLSCAASGFTFSMYGMVWVRQAPGKGLEWVSVISPSGGNTGYADSVKGRFTISRDNSKNTLYLQVNSLRAEDTAVYYCARAPRGYSYGYYYWGQGTLVTVSSASTKGPSVFPLAPSSKSTSGG
VL: DIQMTQSPLSLSASVGDRVTITCRASQGIGHYLAWYQQKPGKVPKLLIYTASTLQSGVPSRFSGSGSGTDFTLTINSLQPEDVATYYCQQFNSYPHTFGQGTRLDIK
modifications: IgG constant regions; Synthetically generated peptide
On to B1, for which the “staining pattern in SW480 mouse xenograft sections” value was “consistent with staining of mouse endothelial cell Tie1”.
